From the supplement of paper PMC9112550, “Optimization of the antimicrobial peptide Bac7 by deep mutational scanning” (BMC Biology, 2022) come the findings set out here.

In this series the test system is Escherichia coli TOP10. As to the kind of experiment: shrunken log2 fold change of peptide-encoding DNA abundance (4.5 h post-induction vs induction); higher = less antimicrobial activity (less host growth inhibition). Particulars: time post-induction: 4.5 h; library: site-saturation at positions 5, 18, 19, 20.
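Note: peptides expressed intracellularly from a pBAD plasmid library in pooled LB shake-flask culture, induced with 0.3% L-arabinose, DNA abundance read by NGS, three biological replicates, DESeq2 with apeglm shrinkage.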

RRIRYRPPRLPRPRPRPEGKPRP: the “shrunken log2 fold change” value is -0.0361.

For RRIRKRPPRLPRPRPRPTKSPRP, the “shrunken log2 fold change” value amounted to 2.1.

RRIRHRPPRLPRPRPRPCQIPRP: the “shrunken log2 fold change” value is -0.0122. As for RRIRARPPRLPRPRPRPENPPRP, the figure is 1.14; as for RRIRQRPPRLPRPRPRPMNFPRP, -0.01. As for RRIRARPPRLPRPRPRPQWKPRP, the figure is 0.179; as for RRIRNRPPRLPRPRPRPDTRPRP, -0.111; as for RRIRTRPPRLPRPRPRPFCIPRP, -0.361. As for RRIRLRPPRLPRPRPRPMDSPRP, the figure is -0.172; as for RRIRGRPPRLPRPRPRPMLNPRP, 0.477; as for RRIRDRPPRLPRPRPRPNIYPRP, -0.3.

RRIRWRPPRLPRPRPRPWNSPRP: the “shrunken log2 fold change” value worked out at 0.0293.

In the case of RRIRQRPPRLPRPRPRPNMEPRP, the “shrunken log2 fold change” value is -0.404. Turning to RRIRNRPPRLPRPRPRPYKIPRP, the “shrunken log2 fold change” value was -0.0214. Under RRIRSRPPRLPRPRPRPNCLPRP stands -0.28; under RRIRHRPPRLPRPRPRPGGHPRP, 0.125; under RRIRNRPPRLPRPRPRPRDMPRP, -0.121. Consider RRIRTRPPRLPRPRPRPYWLPRP, for which the “shrunken log2 fold change” value was -0.486. For RRIRPRPPRLPRPRPRPFFGPRP, the “shrunken log2 fold change” value stood at 0.0908. Under RRIRTRPPRLPRPRPRPIGQPRP stands -0.0623. Under RRIRCRPPRLPRPRPRPMAYPRP stands -0.00456; under RRIRTRPPRLPRPRPRPSKYPRP, 0.557; under RRIRSRPPRLPRPRPRPNEVPRP, -0.131. Under RRIRGRPPRLPRPRPRPFEHPRP stands 0.212; under RRIRYRPPRLPRPRPRPHKWPRP, -0.581. In the case of RRIRIRPPRLPRPRPRPGARPRP, the “shrunken log2 fold change” value was 0.251.

For RRIRWRPPRLPRPRPRPNYGPRP, the “shrunken log2 fold change” value was -0.281. Under RRIRIRPPRLPRPRPRPVIDPRP stands -0.0443; under RRIRSRPPRLPRPRPRPQLEPRP, 0.455; under RRIRARPPRLPRPRPRPTPSPRP, 0.791. With RRIRNRPPRLPRPRPRPEEWPRP, the “shrunken log2 fold change” value was found to be 0.108. As for RRIRWRPPRLPRPRPRPMIEPRP, the figure is 0.0215. Under RRIRERPPRLPRPRPRPVLRPRP stands -0.156; under RRIRPRPPRLPRPRPRPRTDPRP, 0.165. Under RRIRPRPPRLPRPRPRPNDCPRP stands 0.0214. Regarding RRIRWRPPRLPRPRPRPIHNPRP, the “shrunken log2 fold change” value was -0.458. Take RRIRARPPRLPRPRPRPTFWPRP: the “shrunken log2 fold change” value was 0.445. Regarding RRIRMRPPRLPRPRPRPHWRPRP, the “shrunken log2 fold change” value is 0.0569. Under RRIRHRPPRLPRPRPRPLEQPRP stands -0.0138; under RRIRNRPPRLPRPRPRPFMEPRP, -0.167. For RRIRCRPPRLPRPRPRPDWQPRP, the “shrunken log2 fold change” value is -0.0213. Turning to RRIRYRPPRLPRPRPRPPDQPRP, the “shrunken log2 fold change” value is -0.145. Under RRIRERPPRLPRPRPRPQCQPRP stands 0.158; under RRIRMRPPRLPRPRPRPVEFPRP, -0.0638. As for RRIRPRPPRLPRPRPRPQGDPRP, the figure is 0.243; as for RRIRYRPPRLPRPRPRPKGLPRP, -0.0102; as for RRIRDRPPRLPRPRPRPCWEPRP, 0.28. Under RRIRPRPPRLPRPRPRPIMSPRP stands 0.0779; under RRIRCRPPRLPRPRPRPHNSPRP, -0.273. For the sequence RRIRARPPRLPRPRPRPNCIPRP, the “shrunken log2 fold change” value is -0.113. Under RRIRTRPPRLPRPRPRPDYWPRP stands -0.149. As for RRIRPRPPRLPRPRPRPSTNPRP, the figure is -0.301. For the sequence RRIRQRPPRLPRPRPRPYVKPRP, the “shrunken log2 fold change” value was -0.365.

As for RRIRSRPPRLPRPRPRPPPMPRP, the “shrunken log2 fold change” value came to 0.817. Consider RRIRCRPPRLPRPRPRPKEKPRP, for which the “shrunken log2 fold change” value was 0.00563. As for RRIRFRPPRLPRPRPRPTWPPRP, the figure is 0.422; as for RRIRIRPPRLPRPRPRPGMRPRP, 0.43. Under RRIRQRPPRLPRPRPRPEPNPRP stands -0.0098; under RRIRPRPPRLPRPRPRPMGAPRP, 0.117; under RRIRYRPPRLPRPRPRPEWCPRP, -0.244. Under RRIRHRPPRLPRPRPRPEAFPRP stands -0.0165.

As to RRIRTRPPRLPRPRPRPSFDPRP, the “shrunken log2 fold change” value was -0.365. As for RRIRPRPPRLPRPRPRPFACPRP, the figure is -0.0209; as for RRIRQRPPRLPRPRPRPPFHPRP, 0.102.

As for RRIRTRPPRLPRPRPRPFGCPRP, the “shrunken log2 fold change” value was -0.0582.

For the sequence RRIRKRPPRLPRPRPRPSQYPRP, the “shrunken log2 fold change” value is -0.21. As for RRIRPRPPRLPRPRPRPCRSPRP, the figure is -0.136. On to RRIRARPPRLPRPRPRPSRAPRP, for which the “shrunken log2 fold change” value was determined as 0.555. As for RRIRIRPPRLPRPRPRPTGQPRP, the figure is 0.0119; as for RRIRQRPPRLPRPRPRPESWPRP, 0.461; as for RRIRCRPPRLPRPRPRPWSDPRP, -0.324. Under RRIRKRPPRLPRPRPRPYQRPRP stands -0.0062. RRIRPRPPRLPRPRPRPVPDPRP: the “shrunken log2 fold change” value is 0.00557. Under RRIRGRPPRLPRPRPRPKMGPRP stands 1.21; under RRIRSRPPRLPRPRPRPCQTPRP, 0.131.

Turning to RRIRARPPRLPRPRPRPLVAPRP, the “shrunken log2 fold change” value amounted to 0.58. Under RRIRSRPPRLPRPRPRPNPAPRP stands -0.0743; under RRIRRRPPRLPRPRPRPARCPRP, 0.42. Under RRIRTRPPRLPRPRPRPPEAPRP stands 0.205; under RRIRTRPPRLPRPRPRPCVKPRP, 0.0506; under RRIRVRPPRLPRPRPRPKYYPRP, -0.921.

Regarding RRIRPRPPRLPRPRPRPTLDPRP, the “shrunken log2 fold change” value worked out at 0.172.

Turning to RRIRYRPPRLPRPRPRPCPMPRP, the “shrunken log2 fold change” value is -0.476. As for RRIRHRPPRLPRPRPRPRAHPRP, the figure is 0.216; as for RRIRGRPPRLPRPRPRPMYCPRP, 0.0756. Under RRIRYRPPRLPRPRPRPHIMPRP stands -0.955; under RRIRTRPPRLPRPRPRPFEKPRP, -0.0979; under RRIRQRPPRLPRPRPRPDPRPRP, -0.00604. Consider RRIRGRPPRLPRPRPRPSSHPRP, for which the “shrunken log2 fold change” value is -0.0172. Under RRIRQRPPRLPRPRPRPRYIPRP stands -0.706; under RRIRSRPPRLPRPRPRPRCHPRP, -0.0928. As for RRIRPRPPRLPRPRPRPAYCPRP, the figure is -0.215; as for RRIRWRPPRLPRPRPRPVLYPRP, 0.0298; as for RRIRMRPPRLPRPRPRPFQLPRP, 0.118. As for RRIRTRPPRLPRPRPRPNQLPRP, the figure is -0.101. As for RRIRIRPPRLPRPRPRPSGDPRP, the “shrunken log2 fold change” value is -0.742.

For RRIRERPPRLPRPRPRPWRVPRP, the “shrunken log2 fold change” value was -0.0327. As for RRIRWRPPRLPRPRPRPHDHPRP, the figure is -0.152; as for RRIRTRPPRLPRPRPRPQPAPRP, 0.0787; as for RRIRYRPPRLPRPRPRPGCRPRP, -0.0618. Under RRIRNRPPRLPRPRPRPCHAPRP stands -0.37. As for RRIRERPPRLPRPRPRPRWEPRP, the figure is 0.0891; as for RRIRERPPRLPRPRPRPLKFPRP, -0.377. Take RRIRDRPPRLPRPRPRPSYDPRP: the “shrunken log2 fold change” value was -0.175. Regarding RRIRRRPPRLPRPRPRPKQRPRP, the “shrunken log2 fold change” value came to 0.288. On to RRIRKRPPRLPRPRPRPCGDPRP, for which the “shrunken log2 fold change” value was found to be 0.466. As for RRIRFRPPRLPRPRPRPNALPRP, the figure is -0.347; as for RRIRKRPPRLPRPRPRPPMQPRP, 0.439. As for RRIRWRPPRLPRPRPRPMHGPRP, the figure is -0.138; as for RRIRMRPPRLPRPRPRPRPEPRP, 1.35; as for RRIRFRPPRLPRPRPRPAHQPRP, -0.15. As for RRIRKRPPRLPRPRPRPRWFPRP, the figure is 0.295; as for RRIRPRPPRLPRPRPRPHPIPRP, 0.0162; as for RRIRHRPPRLPRPRPRPQWDPRP, -0.0406. On to RRIRRRPPRLPRPRPRPMYSPRP, for which the “shrunken log2 fold change” value was -0.0989. As for RRIRIRPPRLPRPRPRPRDKPRP, the figure is 0.115; as for RRIRCRPPRLPRPRPRPYLNPRP, -1.32. In the case of RRIRSRPPRLPRPRPRPTTQPRP, the “shrunken log2 fold change” value came out at 0.22.

On to RRIRKRPPRLPRPRPRPRFWPRP, for which the “shrunken log2 fold change” value amounted to 1.42. Under RRIRTRPPRLPRPRPRPSWWPRP stands 0.125; under RRIRDRPPRLPRPRPRPTGMPRP, -0.00655.

Consider RRIRVRPPRLPRPRPRPENDPRP, for which the “shrunken log2 fold change” value is -0.0879. Take RRIRVRPPRLPRPRPRPSMCPRP: the “shrunken log2 fold change” value was -0.528. Under RRIRMRPPRLPRPRPRPTYSPRP stands 0.0196. As for RRIRMRPPRLPRPRPRPIMRPRP, the figure is 0.537.
